Molecular target: T1, digoxigenin (DIG)-labeled recombinant human PCNA (human, UniProt P12004 1-261, digoxigenin label (DIG Protein Labeling Kit); labeled residues not stated)
T1 construct: proliferating cell nuclear antigen (PCNA), human, recombinant wild type; Same protein as m1, chemically labeled with digoxigenin and used as the probe in the overlay; also called PCNA-DIG; DIG-labeled PCNA
Assay: far-Western, overlay or dot blot; Increasing amounts of non-tagged p50 or purified pol δ4 run on 12% SDS-PAGE and transferred to nitrocellulose; probed with DIG-labeled PCNA in PBS for one hour (1:10,000 dilution of 0.15 mg/ml stock); detected with Anti-DIG-HRP and ECL; films for p50 slightly overexposed
Conditions: both partners purified

T1 sequence (P12004 whole entry): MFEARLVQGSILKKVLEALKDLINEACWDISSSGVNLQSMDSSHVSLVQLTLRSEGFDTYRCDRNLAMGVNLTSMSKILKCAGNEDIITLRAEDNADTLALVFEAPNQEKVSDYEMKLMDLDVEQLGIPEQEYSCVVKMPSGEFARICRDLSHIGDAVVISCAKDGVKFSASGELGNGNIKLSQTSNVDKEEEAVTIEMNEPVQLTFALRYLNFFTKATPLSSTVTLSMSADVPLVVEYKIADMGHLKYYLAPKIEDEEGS

B1: p12 subunit of recombinant human DNA polymerase δ four-subunit complex (natural protein, UniProt Q9HCU8 1-107, looked up)
chain: MGRKRLITDSYPVVKRREGPAGHSKGELAPELGEEPQPRDEEEAELELLRQFDLAWQYGPCTGITRLQRWCRAKQMGLEPPPEVWQVLKTHPGDPRFQCSLWHLYPL
notes: also called pol δ4 subunit p12; source: Bombyx mori (silkworm) bioreactor, purified as the pol δ four-subunit complex, resolved by SDS-PAGE
B1: binds.
